In patent US20080267971A1 (published 2008):
Residue numbers refer to the chain shown, from its start.

T1: human Ang-2443 (human, UniProt O15123 19-496)
T1 construct: Splice variant missing amino acids 96-148; supernatant of transfected 293F cells
T1 sequence: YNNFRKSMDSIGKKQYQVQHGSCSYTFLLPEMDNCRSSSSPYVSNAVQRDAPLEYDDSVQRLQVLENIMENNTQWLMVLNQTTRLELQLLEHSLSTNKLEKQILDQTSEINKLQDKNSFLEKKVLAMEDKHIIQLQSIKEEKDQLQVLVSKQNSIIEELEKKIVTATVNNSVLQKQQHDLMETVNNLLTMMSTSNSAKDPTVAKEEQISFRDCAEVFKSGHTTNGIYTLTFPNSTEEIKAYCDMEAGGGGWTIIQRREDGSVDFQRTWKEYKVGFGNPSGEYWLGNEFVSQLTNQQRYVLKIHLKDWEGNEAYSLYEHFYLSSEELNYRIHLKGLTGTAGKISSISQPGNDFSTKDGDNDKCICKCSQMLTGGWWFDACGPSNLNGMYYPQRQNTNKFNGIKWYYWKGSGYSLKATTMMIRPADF

T2: Human Ang-1/2 BsmI chimeric molecule (human)
T2 chain: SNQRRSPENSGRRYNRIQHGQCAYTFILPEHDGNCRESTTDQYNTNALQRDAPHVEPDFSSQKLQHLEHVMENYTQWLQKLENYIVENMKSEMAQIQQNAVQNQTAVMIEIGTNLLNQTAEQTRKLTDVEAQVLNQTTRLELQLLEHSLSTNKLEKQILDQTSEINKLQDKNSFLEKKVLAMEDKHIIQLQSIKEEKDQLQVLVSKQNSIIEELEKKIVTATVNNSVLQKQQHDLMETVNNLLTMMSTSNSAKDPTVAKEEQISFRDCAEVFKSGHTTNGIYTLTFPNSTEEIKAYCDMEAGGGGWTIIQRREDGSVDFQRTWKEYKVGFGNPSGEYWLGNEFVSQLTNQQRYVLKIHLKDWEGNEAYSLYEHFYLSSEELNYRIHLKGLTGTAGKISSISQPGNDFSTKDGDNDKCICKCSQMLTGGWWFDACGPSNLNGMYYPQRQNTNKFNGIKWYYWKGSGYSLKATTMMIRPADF

T3: Mouse/Human chimeric Ang-2 with the human StuI-TfiI fragment (mouse/human chimera, UniProt O35608 19-496)
T3 construct: also called Stu-Tfil 310-400
T3 chain: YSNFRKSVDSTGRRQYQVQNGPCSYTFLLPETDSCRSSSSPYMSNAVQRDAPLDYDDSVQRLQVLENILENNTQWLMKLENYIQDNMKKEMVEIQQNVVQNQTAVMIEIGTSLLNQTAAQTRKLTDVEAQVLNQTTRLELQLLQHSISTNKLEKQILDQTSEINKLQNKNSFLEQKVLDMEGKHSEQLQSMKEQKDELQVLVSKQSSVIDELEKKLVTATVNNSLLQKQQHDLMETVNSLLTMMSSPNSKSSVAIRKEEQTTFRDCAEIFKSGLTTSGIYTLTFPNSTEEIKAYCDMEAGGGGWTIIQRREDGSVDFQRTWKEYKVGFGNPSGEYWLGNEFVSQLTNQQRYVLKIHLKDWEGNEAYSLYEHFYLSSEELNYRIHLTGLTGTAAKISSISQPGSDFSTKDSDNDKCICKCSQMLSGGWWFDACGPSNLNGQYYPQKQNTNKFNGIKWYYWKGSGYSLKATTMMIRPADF

T4: human Ang-2 V345M (human, UniProt O15123 19-496)
T4 sequence: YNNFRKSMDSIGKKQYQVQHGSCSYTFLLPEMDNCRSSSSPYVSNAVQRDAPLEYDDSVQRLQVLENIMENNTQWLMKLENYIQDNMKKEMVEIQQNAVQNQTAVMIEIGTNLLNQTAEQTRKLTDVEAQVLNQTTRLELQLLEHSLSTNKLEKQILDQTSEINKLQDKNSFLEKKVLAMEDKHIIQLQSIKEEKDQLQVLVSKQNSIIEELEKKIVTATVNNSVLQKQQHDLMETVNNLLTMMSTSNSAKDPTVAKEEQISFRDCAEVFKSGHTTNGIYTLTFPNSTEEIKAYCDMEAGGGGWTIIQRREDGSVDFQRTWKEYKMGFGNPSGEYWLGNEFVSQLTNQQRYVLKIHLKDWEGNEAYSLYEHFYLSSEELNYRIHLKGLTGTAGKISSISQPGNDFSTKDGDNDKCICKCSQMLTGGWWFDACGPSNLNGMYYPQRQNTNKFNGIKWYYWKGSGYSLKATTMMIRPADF

T5: human Ang-2 H375Q (human, UniProt O15123 19-496)
T5 sequence: T4 sequence with M326V, H356Q

B1: mAb 5.83.1 (antibody, V domains shown)
VH: not shown
VL: EIVMTQSPATLSVSPGERATLSCRASQSLISNLAWYQQKPGQAPRLLIFGASTRATGIPARFSGSGSGTEFTLTISSLQSEDFAVYYCHQYNNWWTFGQGTKVEIKR
notes: Human hybridoma IgG (XenoMouse); also called x5.83
B2: mAb 5.13.1 (antibody, V domains shown)
VH: EVQLVESGGGLVQPGGSLRLSCAASGFTFSSYWMSWVRQAPGKGLEWVANIKQDGSEKYYVDSVKGRFTISRDNAKNSLYLQMNSLRAEDTAVYYCARDPGIAVAGPFDYWGQGTLVTVSS
VL: B1 VL with L29V, I30S, F49Y, H89Q, N93H
notes: Human hybridoma IgG (XenoMouse); also called x5.13
B3: mAb 3.31.2 (antibody, V domains shown)
VH: EVQLVESGGGLVQPGGSLRLSCAASGFTFSSYWMSWVRQAPGKGLEWVANIKQDGSDKYYVDSVKGRFTISRDNAKNSLYLRMNSLRAEDTAVFYCARDMGSGWFDYWGQGTLVTVSS
VL: B1 VL with I2V, L29V, I30G, F49Y, Y87C, H89Q, N93H
notes: Human hybridoma IgG (XenoMouse); also called x3.31
B4: mAb 5.88.3 (antibody, V domains shown)
VH: EVQMVESGGGLVQPGGSLRLSCAASGFTLRSYWMSWVRQAPGKGLEWVANIKEDGSEKYHVDSVKGRFTISRDNAENSLFLQMSSLRAEDTAVYYCARDMEASAGLFDYWGQGTLVTVSS
VL: B1 VL with T20I, L29I, I30S, F49Y, H89Q, N93Y
notes: Human hybridoma IgG (XenoMouse); also called x5.88
B5: mAb 3.3.2 (antibody, V domains shown)
VH: B2 VH with A24V, P100Q
VL: B1 VL with S28T, L29V, I30S, N32D, F49Y, T53I, Y87S, H89Q, N92Y
notes: Human hybridoma IgG (XenoMouse); also called 3.3.1; x3.3
B6: mAb 5.62.1 (antibody, V domains shown)
VH: B2 VH
VL: B1 VL with L29V, I30S, F49Y, S52F, H89Q, N93H, E104G
notes: Human hybridoma IgG (XenoMouse); also called x5.62
B7: mAb 5.54.1 (antibody, V domains shown)
VH: not shown
VL: B1 VL with V85I
notes: Human hybridoma IgG (XenoMouse); also called x5.54
B8: mAb 5.101.1 (antibody, V domains shown)
VH: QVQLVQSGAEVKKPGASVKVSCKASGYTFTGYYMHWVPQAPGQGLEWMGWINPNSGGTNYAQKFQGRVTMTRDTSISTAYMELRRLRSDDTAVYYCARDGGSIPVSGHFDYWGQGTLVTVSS
VL: B1 VL
notes: Human hybridoma IgG (XenoMouse); also called x5.101
B9: mAb 5.28.1 (antibody, V domains shown)
VH: EVQLVESGGIVVQPGGSLRLSCAASGFTFDDYTMHWVRQTPGKGLEWVSLISWDGGSTYYADSVKGRFTISRDNSKNSLYLQMNSLRTEDTALYYCAKDIDIAVAGTGFDHWGQGTLVTVSS
VL: EIVMTQSPATLSVSPGERATLSCRASQSVTSNLAWYQQKPGQAPRLLIYGALIRATGIPARFSGSGSGTEFTLTISSLQSEDFAVYYCQQYNNWPFTFGPGTKVDIKR
notes: Human hybridoma IgG (XenoMouse); also called x5.28
B10: mAb 3.19.3 (antibody, V domains shown)
VH: QVQLVESGGGVVQPGRSLRLSCAASGFTFTNYGMHWGRQAPGKGLEWVAVISHDGNNKYYVDSVKGRFTISRDNSKNTLYLQMNSLRAEDTAVYYCAREGIDFWSGLNWFDPWGQGTLVTVSS
VL: EIVLTQSPGTLSLSPGERATLSCRASQSITGSYLAWYQQKPGQAPRLLICGASSWATGIPDRFSGSGSGTDFTLTISRLEPEDFAVYYCQQYSSSPITFGQGTRLEIKR
notes: Human hybridoma IgG (XenoMouse); also called x3.19
B11: mAb 5.52.1 (antibody, V domains shown)
VH: QVQLVESGGGVVQPGRSLRLSCAASGFTFSSYGMHWVRQAPGKGLEWVAVRWYDESNKYYADSVKGRFTISRDNSKNTLYLQMNSLRAEDTAVYYCARDPFETGTTFDYWGQGTLVTVSS
VL: DIQMTQSPSSVSASVGDRVTITCRASQGISSWLAWYQQKPGKAPKLLIYAVSSLESGVPSRFSGSGSGTDFTLTISSLQPEDFATYYCQQALTFGGGTKVEIKR
notes: Human hybridoma IgG (XenoMouse); the line 5.52 has entries of its own (347, 349; light chain L2) that differ from the clone 5.52.1 (L5); also called x5.52
B12: mAb 5.86.1 (antibody, V domains shown)
VH: QVQLVQSGAEVKKPGASVKVSCKASGYTFTGYHMYWVRQAPGQGLEWLGWINPNSGGTNYAQKFQGRVTMTRDTSISTAYMELSRLRSDDTAVYYCVRDQGIAAAGPFDYWCQGTLVTVSS
VL: DIRMTQSPSSLSASVGDRVTITCRASQRISTYLNWYQQKPGKAPKFLIYAASSLQSGVPSRFSGSGSGTDFTLTISSLQPEDFATYYCQQSYTTPFTFGPGTKVDIKR
notes: Human hybridoma IgG (XenoMouse); also called x5.86
B13: mAb 5.103.1 (antibody, V domains shown)
VH: B12 VH with H33Y, M34L, R38P, L48M, N52S, V97A, G101V, A104V, C112A
VL: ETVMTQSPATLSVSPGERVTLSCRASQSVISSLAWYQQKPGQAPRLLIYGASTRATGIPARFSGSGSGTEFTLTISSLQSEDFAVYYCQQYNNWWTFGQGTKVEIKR
notes: Human hybridoma IgG (XenoMouse); also called 5.103.3; x5.103

Molecular target: T1, human Ang-2443
Test: ELISA

Binder | % of binding to human Ang-2
B1 | 100%
B2 | 100%
B3 | 100%
B4 | 100%
B5 | 100%
B6 | 100%
B7 | 100%
B8 | 100%
B9 | 100%
B10 | 100%
B11 | 100%
B12 | 100%
B13 | 100%

Molecular target: T2, Human Ang-1/2 BsmI chimeric molecule
Test: ELISA

Binder | % of binding to human Ang-2
B1 | 100%
B2 | 100%
B3 | 100%
B4 | 100%
B5 | 100%
B6 | 100%
B7 | 100%
B8 | 100%
B9 | 100%
B10 | 100%
B11 | 100%
B12 | 100%
B13 | 100%

Molecular target: T3, Mouse/Human chimeric Ang-2 with the …
Test: ELISA

Binder | % of binding to human Ang-2
B1 | 86%
B2 | 27%
B4 | 20%
B5 | 15%
B6 | 30%
B7 | 77%
B8 | 28%
B9 | 100%
B10 | 100%
B11 | 100%
B12 | 23%

Molecular target: T4, human Ang-2 V345M
Test: ELISA

Binder | % of binding to human Ang-2
B1 | 100%
B2 | 100%
B3 | 100%
B4 | 100%
B5 | 100%
B6 | 100%
B7 | 100%
B8 | 100%
B9 | 100%
B10 | 100%
B11 | 100%
B12 | 100%
B13 | 100%

Molecular target: T5, human Ang-2 H375Q
Test: ELISA

Binder | % of binding to human Ang-2
B1 | 100%
B2 | 100%
B3 | 100%
B4 | 100%
B5 | 100%
B6 | 100%
B7 | 100%
B8 | 100%
B9 | 100%
B10 | 100%
B11 | 100%
B12 | 100%
B13 | 100%
